Measured values taken from a protein production outcome set (Wang et al. 2014).

Experiment: label from the status in PepcDB records
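Further: failed if final PepcDB status was selected cloned or expressed and not failed if soluble or beyond.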

Q: For “MAEPKFTSFTTADFINDVDMELFIDAVEKTAPVWVKEMKSRGLLKFSMNRVWNKGEVFRVVMTYEYKDRASFEANIAYLEDTFGKNPVFLQLVTTAKFTTSRCLVVMEV”, which protein production is on record?
A: Its protein production is “not failed”.

Q: With “MATAFSSLRARLFALLLLALLLLLAPLAWLSAREAERAASEDLRRALYTRLYLLQAEGVQDEERLLLELFRLAQLFGGGVGFVLREGEARFTQLGDWPLPPGLPAALAAEGVYQGVFRGTLYVVLAQGGLAYGLAVPLEGVSGLGQRLLARYALWGGGLLLGVFLLAALALSWTLRPLRDLEKALRARAPEDLSPLPDPGLAELRPVVAALNALFARVGRLLAELAEKEEAARRFARHASHELRTPLTALKGYLEVLRRKNEPRALEGALREAGRMEALLAGLLRLSRLEALPPQRVPLDLRAFLEAQGLEVQGEGRVLADPELLALAVENVLENARRHGRLPVRAELSREGEGVWVWLVDAGPGFPEDLLPRVLEPFVHGGKGTGLGLALVAAVARAHGGRVRVENRGGAGVGLYLPLAPLKVSPGVPFGEGG” as the sequence, how does the protein production read?
A: Its protein production is “not failed”.

Q: Which protein production does the source give for “MVKELIEQGANVTGLVRDHVPQSNLYQGEHIKKMNIVRGSLEDLAVIERALGEYEIDTVFHLAAQAIVGVANRNPISTFEANILGTWNILEACRKHPLIKRVIVASSDKAYGDQENLPYDENMPLQGKHPYDVSKSCADLISHTYFHTYGLPVCITRCGNLYGGGDLNFNRIIPQTIQLVLNGEAPEIRSDGTFVRDYFYIEDAVQAYLLLAEKMEENNLAGEAFNFSNEIQLTVLELVEKILKKMNSNLKPKVLNQGSNEIKHQYLSAEKARKLLNWTPAYTIDEGLEKTIEWYTEFFKK” here?
A: Its protein production is “failed”.

Q: For “MLYDLTVVQFSKMLKNLNAIFDKAEAFAELKKVDMDVLLNSRLAADQFNLIRQVQIACDTAKVGVARLTGQLETAPKHDDSETTLAELRQRIASVLTYLEGFSEADFANAATIQISQPRWQGKYLTGYEFAIEHAIPNLYFHITTAYGILRHNGVEVGKKDYLGAMPYKAPIL”, which protein production is on record?
A: Its protein production is “not failed”.

Q: For “MKNKTYYLSIIFTSLVCLFLFTKALGFILWINGAPIDKWVAWVGLFAIPIFIYYSFPGRSLKKTQKIVTIVIIIVQIIWLKWAINQSKYYVYVNSNNILPSPYIIQETPNSNTPISLGQRLLTNYTFYKSIHSYLYVRENVTKSDRGIVDWIKHFDSEIKEEEDDGRIYIETYKGKLFFK”, which protein production is on record?
A: The protein production was “failed”.

Q: For “PDQCKPPQVTCRSATCAQVNWEVPLSNGTDVTEYRLEWGGVEGSMQICYCGPGLSYEIKGLSPATTYYCRVQALSVVGAGPFSEVVACVTPPS”, which protein production is on record?
A: Its protein production is “not failed”.

Q: With “MSTKTMKEKAVELLQKCEVVTLASVNKEGYPRPVPMSKIAAEGISTIWMSTGADSLKTIDFLSNPKAGLCFQEKGDSVALMGEVEVVTDEKLKQELWQDWFIEHFPGGPTDPGYVLLKFTANHATYWIEGTFIHKKLD” as the sequence, how does the protein production read?
A: The protein production was “not failed”.

Q: With “MLPADGIVCFPGQTWEKVLSKVKKAVVFMDDRCSESLHWNGGAALLFEAGARNIKQFSSFEAGAQNEPKAVFVVSTVLKGRTADIIKDIISLSHFQYCVVFTTVPHSIHLLANNVNADLEGNPVFEQFEEKLCEWMGDMNYTAEVMHAPVVFAPLTEHLHLLPAFSNLFPLLDVDLESINEKRPEKKRFGSLMDMDVHSLPPGLQIQIKTLALTLNGLFEFISTREESFSVGPMSRLIATELANLPQAKNRRKTAPNKASVVFVDRTLDLTGAVGHHGDNLAEKILSVLPQLPGHVTDVQVDMLELTHLKPTTDTKGILAPGCLAQNQSATAKLLWETMLVAKQKEAVIEVRRQLVEAASKENLPIKMSLGRVTAEQLCSYVQLFRDSWGALESHSGVLQLGLAAAQALRHPALQRWDACLAFERLLLQALGDSDLAGVLKQLLPLIKSSESGTGSDLSMDDLLVLLVYVYSVAKEACSGGSEEEKQVEKVEQELIGALTLRLTRETTLSPLVQEVTGVSCPEELTMECAHSVLESMFGTLRGVARARDHLKNFSSVFTPGDGAHQDQHRYILILMIQDQHQ” as the sequence, how does the protein production read?
A: The protein production was “failed”.

Q: For “LPVILWFLAHGLDVVFIDYPRDPATGVQYYCDSIAAAKSLLDAVLASRQLGLSPEAPLGLWGFSQGGGATGWAAQLQDYAPDVRPKAAVVGAPPVDLFRVLDTVDGGLLTGVIAYAIAGLAVNSSEMFEEIMSVLNERGVSDVLKNITSCAGGSLLASGYSSSRGWTHQGTPLADILDDLPLVVAEFGKQKLGRVAPEIPVLLWGSKNDDVIPIDPIRELRDSWADKGTPLTWHESQAPRVPGRTGLNHFGPYFRNLEKYSGWLIDHL”, which protein production is on record?
A: The protein production was “failed”.

Q: Which protein production does the source give for “MRDDVFGQSNSLTRADSAEAWDGVLLGFMAHAAVTPQHLARVLELEPDFALAHAIKGLFMLLLGRREMTPVAIEAMAAAERAAAARAITAREGHYLAALRHWLAGNPSRSVQEFEAILRAHPDDTLAMKLSHATRFVLGDPAGMRRSIERVMPAYAPDHAGRGYLLGCHAFALEETGAYDKAEIAGRQALWMVSDDAWGLHAVAHVHEMKGQSELGLDWLAGREAAWSHCNNFRYHVWWHKALMHLDQGQIDQVFDLYDSAIRKDKTDDYRDISNATSLLSRLELEGVNVGDRWEELADLSAARTEDGCLIFADLHYLLALTGDTREDAISRMLHRIKRDADMAQCDTTRRMADPGLAAAQGLEAFGEGQYGQAFDHLLTARGSMQLAGGSHAQRDVFERITIDAGLRAGRLDAVERVLDDRRAKRGGHEDTYALARRALIEAGRDDRNIHSVPAE” here?
A: The protein production was “failed”.

Q: Which protein production does the source give for “EALQGLLGAGWWELCPDTAEILLASRLAASLHLPEDGARLNVQAWLELIHPADRGELSSRLQELKLGKPLLLNVRLHEPDPSAPQRWYRLQGQALGRGESQRLVGFMLDISD” here?
A: The protein production was “failed”.

Q: With “MDLVPLKLVTIVAESLLEKRLVEEVKRLGAKGYTITPARGEGSRGIRSVDWEGQNIRLETIVSEEVALRILQRLQEEYFPHYAVIAYVENVWVVRGEKYV” as the sequence, how does the protein production read?
A: Its protein production is “not failed”.

Q: For “MPSSSNSAAFSLDEFAKALDKHDYHAEKGQTVHGKICQHANEGVYVDFGGKSPGFVPVQELGLRPHAEIEDSFPLDSAWDFLVTSEQNDEGQVRLSRRQLQIQQSWENLAELEESGKTLEMVVTGTNKGGVVGDVEGLRGFIPRSHLMHKDNMDALVGQVLKAHILEANQDNNKLVLTQRRIQQAESMGKIAAGNIYEGKVAKIQPYGVFVEIEGVTGLLHVSQVSGTRVDSLNTLFAFGQAISVYVQEIDEYKNRISLSTRILETYPGELVEKFDEMMADAPNRLPLVQSKQNLGDKQEQLEKSLEHHHHHH”, which protein production is on record?
A: Its protein production is “failed”.

Q: Which protein production does the source give for “MRKFILYWALYGLIELIMYVWLFQVIGFWPLLFIQIASSAFGVFIFKRLGGNLFRNLRDGRTVAPYLLDSLCFFIAGFLLIIPGVITTILGLLIFIPFSRKLLKPKLTKWLGNQKKHTQYYYFDM” here?
A: The protein production was “failed”.

Q: For “MNQSLSPQQSPGFLFIAVSMITCLILLINVSFKIILLGGLVFAINSLICPLIAALFLFALRNCTFKEQRHLLNICLMTLYMFCIGVYVLVNLPAAEYMHDNPAYQVIFEEIPKKFFATTIAFALSFYLPHLLFCTKNDRVLSTPKQCVLLALLGGVSFFCLDFYLLFSAPHAHSFKQIFIDSFMISSLLLLIIGVVYLTFLLNDKQHKGKALIETTELTLFPIYQYLICFAVTVMLVCLACEYRIIAINKDLVLSASCIFFPITIIISSIVGELWGYQANLKLALALLAAQFIFDMLLMGSVALPSPPFFNLNPFYHYIMPRRLSAASLSLFVTFLGNAMLLHYLKYSKWKINRSLRILIANISVNSLLCLVDYSLLYGGIYPYEQIINLAVSVWQYKLLTALIALPVILWMCKILERNYSLVVQTERN”, which protein production is on record?
A: Its protein production is “failed”.

Q: Which protein production does the source give for “MLDFNIEGLIPKNMEKRGELVLNEYLKEIEDVFNHRKIPENGIDDEKIKLFLKFLSMMDTDKDPKSVRIGEREARTYSKIHEELSSGFCHGIGRSGNLVDPQPKASGASIMYALTNKILESFFKQLGLNVHAIATPISTGMSISLCLSAARKKYGSNVVIYPYASHKSPIKAVSFVGMNMRLVETVLDGDRVYVPVEDIENAIKKEIELGNRPCVLSTLTFFPPRNSDDIVEIAKICENYDIPHIINGAYAIQNNYYLEKLKKAFKYRVDAVVSSSDKNLLTPIGGGLVYSTDAEFIKEISLSYPGRASATPVVNTLVSLLSMGSKNYLELVKNQKNSKKLLDELLNDLSKKTGGKFLDVESPIASCISVNSDPVEIAAKLYNLRVTGPRGIKKTDHFGNCYLGTYTHDYIVMNAAIGVRTEDIVNSVSKLEKILL” here?
A: Its protein production is “failed”.

Q: For “MVSEMLSEAGHSVSYLKGGMKAWSEHLEPVKVGDLKDGGEMYQFVRIGKGCLSYMVISNGEAAIIDATRMVNFFIDFAKGKGATITHVFDTHLHADHISGGRVIAEKTKATYWLPPKDAEEVEFDYQPLEEGNDIIIGNTTIKIQPIYSPGHTIGSTSFIVDDQYLLSGDILFIDSIGRPDLAGMAEDWVGDLRKTLYSRYKALSKDLIVLPAHFMIIDELNENGSVGKQLSTLFSENHGLNIADETEFRHLVTDHLPPQPNAYQEIRETNMGKISPDEEKQREMEIGPNRCAIRLEHHHHHH”, which protein production is on record?
A: The protein production was “failed”.

Q: For “MILNVAGPLGNPAPMEKFGKILAIGAYVGIAEVYPIAKAWQEIGNDVTTLHVTFEPMVILKDYFEKAVSRHIVEPVKIDQEKSFQENTKNVTKALTAKVKELLDNENWDLVFMVGPPGDQKAVFEVVKKYGIPMKVDLHPIMLEHHHHHH”, which protein production is on record?
A: Its protein production is “not failed”.

Q: For “MIEKKKNRSKLKREAILAAAKKAYQDDGVQNTSMDKLASLAQVSKRTVYNHFSSKEALVMELLSDLWQNSMADIDIQFSENVSIQDQLERLLLAELNVIGAQSYLDLAKVAFGHFFYKPDELQLQVEKMAEQETALSRWLQLMMDTKKLTIEDKHKAGVQLHSLLKGSAFWPQLVGMRAVLSSEEKEQLVTETADMFLSRYLKR”, which protein production is on record?
A: Its protein production is “not failed”.

Q: Which protein production does the source give for “MQESWVEGVEDIRMLGSSLRNDSAAAGRACARTRAGPPAESRKKKVQAERRRREGVANAPTRALRFLRARRAWSPRLAAPGPLTLVAEGEEGRNRVPAAKHPCLRTMSPEPAPPEPQGVRSSLEEPSAEPLGQGSAAFLAGDYEVAAELFRSLLAGLAQPERGLCLQLGEALARAGRLPEAIGAFRGAALLGPLQPGELSELASGLARALGLREKRPPVAARPGGCASGTSGPVAPRDLLGCPRCGRLLYKPVTLSSGLTVCKRCVEQVPVRAQARRVNVVLSGLLERCFPAECRLRRLACQARGLQRQQQPEAALLRCQQALDMAPDDSSLLLLRAELYLTMKNYEQALQDADTVCQREPLLTKGHHIKAQILSGLGRNKEVLKEFIYCLALNPECNSAKKETQKVICEVFFSASENEQQNSAPSTQTGPKALCDGQMSPQNPLEEAGGHANADSPKTPSEKPDVPENTNSSVLYFILGLHCEEDKKALEGVIPAAPSGTLKRQLPSDAEDKELDVNTPEKIPKKDADSSPQRNANSLEEEPEFTIDATDFECALCMRLLFEPVTTPCGHTFCLKCLERCLDHAPHCPLCKDKLSELLATRNFNVTVLTEELIFRYLPDELSDRKRVYDEEMSELSHLTRDVPIFVCAMAFPTVPCPLHVFEPRYRLMIRRCMETGTKRFGMCLSAENAGISEYGCMLEIKDVRTFPDGSSVVDAVGISRFRVLSHRHRDGYNTADIEYLEDEKVEGAEFEELTALHESVYQQSVSWFASLQDHMKKQILSHFGSMPDREPEPQSNSSGPAWSWWILAVLPLERKAQLAILGMGSLKERLLAIRRILVIITRKLNSRQEMANNAQRDN” here?
A: Its protein production is “failed”.

Q: Which protein production does the source give for “MPIRGFHYRGDEAIYPASVVKLFYLVAALEWLQQGMIQPSAELDRALRDMIVDSSNDATGYIVDLLSGTTSGPELGDGPFKTWQFQRNIVNRYYQSLMWPELQPINVNQKTWGDGPYGRERAFYGPEFENRNKLTTNATARLLHAIAGGVAVSPSASQRMLNLLNRPFDPRSLAEDPENQVTGFLGQDLPQGSQLWSKAGWMSRVRHDAAYLEIPGLPPHLLVAFTEGKEHANNEAILPFIAQQVRQQLQPALEHHHHHH” here?
A: The protein production was “failed”.

Q: With “MRKISIVIPVYNTEKYLKLSVDSVLSQSYQDWELILVDDGSKDGSGAICDKYASEDSRIKVYHTVNQGVTAARGYGVEQSTGEWICFLDADDTLADDALQVMLGKSADCDIVIGNKRIVSGNDVTEEWMNQDDRQLQAVEFLDGLIRNKISQYITGRIFRRILFDNGTICIPRELIMAEDFIMNVQLGNKAKKIAVIRDMVYGYHVYGESVSHTFRTNLEYESRFCDCLFSALKTGGYYEEVKEAFTFQKVRALKSAFMAQQGRVNLRHPFLQEVRKEAKSIGLSRGWKLFLYLLPLKYIGYIFFRSLNKLEHHHHHH” as the sequence, how does the protein production read?
A: Its protein production is “not failed”.
